Test results reported in patent publication US20040254347.
Entries after “also recorded” stand apart in the source; their conditions may differ.

T1: Fusion Protein No:1 (GST fused with insert SEQ ID NO:2)
T1 chain: QIKS

T2: Fusion protein FP#3 (GST fused with insert SEQ ID NO:4)
T2 chain: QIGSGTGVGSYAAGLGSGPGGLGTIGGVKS

T3: Fusion protein FP#2 (GST fused with insert SEQ ID NO:3)
T3 chain: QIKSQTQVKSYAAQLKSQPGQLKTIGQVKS


Columns and labels:
[1] = molecular target: T1, Fusion Protein No:1 (GST fused with …)
[2] = molecular target: T2, Fusion protein FP#3 (GST fused with …)
[3] = molecular target: T3, Fusion protein FP#2 (GST fused with …)

Protein	cross-linking by transglutaminase, SDS-PAGE [1]	cross-linking by transglutaminase, SDS-PAGE [2]	cross-linking by transglutaminase, SDS-PAGE [3]
mouse coagulating gland transglutaminase (TG4) (protein) MDSRNVLIIYAVNVERKLNAAAHHTSEYQTKKLVLRRGQIFTLKVILNRPLQPQDELKVTFTSGQRDPPYMVELDPVTSYRSKGWQVKIAKQSGVEVILNVISAADAVVGRYKMRVNEYKAGVFYLLFNPWCSDDSVFMASEEERAEYILNDTGYMYMGFAKQIKEKPWTFGQFEKHILSCCFNLLFQLENNEMQNPVLVSRAICTMMCAANGGVLMGNWTGDYADGTAPYVWTSSVPILQQHYVTRMPVRYGQCWVFSGILTTALRAVGIPARSVTNFESAHDTEKNLTVDIYLDESGKTIPHLTKDSVWNFHVWTDAWMKRQDLPHGYDGWQVLDSTPQEISDGGFRTGPSPLTAIRQGLIQMKYDTTFVFTEVNGDKFIWLVKQNQEREKNILIAVETASLGKKISTKMVGENRREDITLQYRFPEGSPEERKVMAKASGKPSDDKLNSRTLNNSLQISVLQNSLELGAPIYLTITLKRKTATPQNVNISCSLNLQTYTGNKKTNLGVIQKTVQIHGQESRVFLTMDASYYIYKLGMVDDEMVIGGFIIAEIVDSGERVATDTTLCFLYSAFSVEMPSTGKVKQPLVITSKFTNTLPIPLTNIKFSVESLGLANMKSWEQETVPPGKTITFQMECTPVKAGPQKFIVKFISRQVKEVHAEKVVLISK	FP#1, with the essential sequence of QXKS/T, is a good substrate of transglutaminases from different sources		
Thrombin-activated factor XIII (human blood factor XIII) (protein) GVNLQEFLNVTSVHLFKERWDTNKVDHHTDKYENNKLIVRRGQSFYVQIDFSRPYDPRRDLFRVEYVIGRYPQENKGTYIPVPIVSELQSGKWGAKIVMREDRSVRLSIQSSPKCIVGKFRMYVAVWTPYGVLRTSRNPETDTYILFNPWCEDDAVYLDNEKEREEYVLNDIGVIFYGEVNDIKTRSWSYGQFEDGILDTCLYVMDRAQMDLSGRGNPIKVSRVGSAMVNAKDDEGVLVGSWDNIYAYGVPPSAWTGSVDILLEYRSSENPVRYGQCWVFAGVFNTFLRCLGIPARIVTNYFSAHDNDANLQMDIFLEEDGNVNSKLTKDSVWNYHCWNEAWMTRPDLPVGFGGWQAVDSTPQENSDGMYRCGPASVQAIKHGHVCFQFDAPFVFAEVNSDLIYITAKKDGTHVVENVDATHIGKLIVTKQIGGDGMMDITDTYKFQEGQEEERLALETALMYGAKKPLNTEGVMKSRSNVDMDFEVENAVLGKDFKLSITFRNNSHNRYTITAYLSANITFYTGVPKAEFKKETFDVTLEPLSFKKEAVLIQAGEYMGQLLEQASLHFFVTARINETRDVLAKQKSTVLTIPEIIIKVRGTQVVGSDMTVTVEFTNPLKETLRNVWVHLDGPGVTRPMKKMFREIRPNSTVQWEEVCRPWVSGHRKLIASMSSDSLRHVYGELDVQIQRRPSM	FP#1, with the essential sequence of QXKS/T, is a good substrate of transglutaminases from different sources		
tissue transglutaminase from guinea pig's liver (protein) AEDLILERCDLQLEVNGRDHRTADLCRERLVLRRGQPFWLTLHFEGRGYEAGVDTLTFNAVTGPDPSEEAGTMARFSLSSAVEGGTWSASAVDQQDSTVSLLLSTPADAPIGLYRLSLEASTGYQGSSFVLGHFILLYNPRCPADAVYMDSDQERQEYVLTQQGFIYQGSAKFINGIPWNFGQFEDGILDICLMLLDTNPKFLKNAGQDCSRRSRPVYVGRVVSAMVNCNDDQGVLQGRWDNNYSDGVSPMSWIGSVDILRRWKDYGCQRVKYGQCWVFAAVACTVLRCLGIPTRVVTNFNSAHDQNSNLLIEYFRNESGEIEGNKSEMIWNFHCWVESWMTRPDLEPGYEGWQALDPTPQEKSEGTYCCGPVPVRAIKEGHLNVKYDAPFVFAEVNADVVNWIRQKDGSLRKSINHLVVGLKISTKSVGRDEREDITHTYKYPEGSEEEREAFVRANHLNKLATKEEAQEETGVAMRIRVGQNMTMGSDFDIFAYITNGTAESHECQLLLCARIVSYNGVLGPVCSTNDLLNLTLDPFSENSIPLHILYEKYGDYLTESNLIKVRGLLIEPAANSYVLAERDIYLENPEIKIRVLGEPKQNRKLIAEVSLKNPLPVPLLGCIFTVEGAGLTKDQKSVEVPDPVEAGEQAKVRVDLLPTEVGLHKLVVNFECDKLKAVKGYRNVIIGPA	FP#1 was cross-linked to a dimer by the enzyme reaction; also recorded: FP#1, with the essential sequence of QXKS/T, is a good substrate of transglutaminases from different sources	the enzyme was able to cross-link FP#3	the enzyme-catalyzed cross-links of FP#2 were very striking ... There were almost no FP#2 monomer left after the enzyme reaction
